Test results from patent US5837516A, “Subtilisin variants capable of cleaving substrates containing basic residues” (Genentech, Inc., priority 1995, dated 1998).
Where a chain is given by its changes, count along the chain named. In names and notes the source's numbering stands. Each block holds one molecule with its values, some of them ahead of it. Residues, ends and D or L forms follow the SMILES beside them.

Key:
[1] = target: T1, subtilisin BPN' variant N62D/G166D (mature enzyme SEQ ID NO: 72) (Bacillus amyloliquefaciens, UniProt P00782, G273D/N169D); experiment: Kinetic analysis, hydrolysis of succinyl-tetrapeptide-pNA substrates; type: biochemical
T1 construct: made in house; host or cells: Bacillus subtilis BG2036 (protease-deficient), secreted
T1 sequence (P00782 108-382 N169D/G273D): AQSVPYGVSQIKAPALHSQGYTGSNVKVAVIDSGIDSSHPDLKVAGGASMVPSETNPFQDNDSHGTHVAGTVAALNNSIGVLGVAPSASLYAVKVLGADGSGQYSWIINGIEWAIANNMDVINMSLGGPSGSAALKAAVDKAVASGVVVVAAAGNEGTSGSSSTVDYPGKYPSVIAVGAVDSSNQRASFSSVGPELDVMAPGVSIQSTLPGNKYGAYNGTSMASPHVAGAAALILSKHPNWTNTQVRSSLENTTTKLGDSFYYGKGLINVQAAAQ
Method: (§1) The mature N62D/Y104D/G166D variant was purified and analyzed for its ability to hydrolyze several tetrapeptide-pNA substrates.
(§2) Kinetic analysis of WT, N62D/G166D, and N62D/Y104D/G166D subtilisin BPN'
(§3) Subtilisins were assayed by measuring the initial rates of hydrolysis of p-nitroanilide tetrapeptide substrates in 0.4 mL 20 mM Tris-Cl pH 8.2, 4% (v/v) dimethyl sulfoxide at (25±0.2)° C. as described previously (Estell, D. A., Graycar, T. P., Miller, J. V., Powers, D. B., Burnier, J. P., Ng, P. G. and Wells, J. A. (1986)Science 233:659-663). Enzyme concentrations (E)0 were determined spectrophotometrically using E280 nm 0.1%=1.17 (Matsubara, H.; Kasper, C B.; Brown, D. M.; and Smith, E. L. (1965)J. Biol. Chem.,240:1125-1130.), and were typically 5-50 nM in reactions. Initial rates were determined for nine to twelve different substrate concentrations over the range of 0.001-2.0 mM. Plots of initial rates (v) versus substrate concentration (S) were fitted to the Michaelis-Menton equation, [formula] to determine the kinetic constants kcat and Km (Fersht, A. in "Enzyme Structure and Mechanism", Second edition, Freeman and Co., N.Y.) using the program Kaleidagraph (Synergy Software, Reading, Pa.).

[2] = target: T2, subtilisin BPN' variant N62D/Y104D/G166D (SEQ ID NO: 75) (Bacillus amyloliquefaciens, UniProt P00782, G273D/N169D/Y211D); experiment: as above; type: biochemical; details: relative to succinyl-RAKR-pNA
T2 construct: the mature enzyme +1 to +275; made in house; host or cells: Bacillus subtilis BG2036 (protease-deficient), secreted
T2 sequence (P00782 108-382 N169D/Y211D/G273D): T1 sequence (P00782 108-382 N169D/G273D) with Y104D
Method: as §1, §2, §3

[3] = target: T3, subtilisin BPN' variant N62D/G166E (Bacillus amyloliquefaciens, UniProt P00782, G273E/N169D); experiment: Kinetic analysis, hydrolysis of suc-AAXX-pna substrates; type: biochemical; details: Lys-Lys versus Lys-Phe substrate
T3 construct: correct folding and maturation of subtilisin requires autolytic cleavage of its propeptide; made in house; host or cells: Bacillus subtilis BG2036 (protease-deficient), secreted
T3 sequence (P00782 108-382 N169D/G273E): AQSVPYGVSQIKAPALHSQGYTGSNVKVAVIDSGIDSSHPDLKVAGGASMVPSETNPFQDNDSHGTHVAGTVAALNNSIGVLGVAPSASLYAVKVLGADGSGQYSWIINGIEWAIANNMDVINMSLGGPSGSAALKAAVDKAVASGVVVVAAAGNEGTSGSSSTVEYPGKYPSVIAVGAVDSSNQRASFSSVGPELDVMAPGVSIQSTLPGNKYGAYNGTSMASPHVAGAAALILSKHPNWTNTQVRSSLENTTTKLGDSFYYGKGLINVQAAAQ
Method: Despite the less than additive effects seen for the two charged substitutions in the S2 site, we decided to combine the best S2 site variant (N62D) with either of the acidic substitutions in the S1 site. The two double mutants, N62D/G166E and N62D/G166D, were analyzed with substrates having the form, suc-AAXX-pna (SEQ ID NO. 71) where XX was either KK (SEQ ID NO. 66), KR (SEQ ID NO. 67), KF (SEQ ID NO. 62), PK (SEQ ID NO. 58), PF (SEQ ID NO. 56) or AF (SEQ ID NO. 63) (FIG. 4). The wild-type preference was AF>PF^~ KF>KK^~ PK>KR, whereas the double mutants had the preference KK>KR>KF>PK^~ AF>PF. […]
as §3, with “Plots of initial rates (v) versus substrate concentration (S) were fitted to the Michaelis-Menton equation, [formula] to determine the kinetic constants kcat and Km (Fersht, A. in "Enzyme Structure and Mechanism", Second edition, Freeman and Co., N.Y.) using the program Kaleidagraph (Synergy Software, Reading, Pa.).” left out

[4] = target: T4, subtilisin BPN' variant G166D (Bacillus amyloliquefaciens, UniProt P00782, G273D); experiment: Kinetic analysis, hydrolysis of suc-AAPX-pna substrates; type: biochemical; details: Lys P1 versus Phe P1 substrate
T4 construct: correct folding and maturation of subtilisin requires autolytic cleavage of its propeptide; made in house; host or cells: Bacillus subtilis BG2036 (protease-deficient), secreted
T4 sequence (P00782 108-382 G273D): as the sequence (P00782 108-382 N169D/G273E) above, with D62N, E166D counted along it
Source text: To probe the effects of the G166E and G166D on specificity at the P1 position we used substrates having the form suc-AAPX-pna (SEQ ID NO: 69) where X was either Lys (SEQ ID NO. 58), Arg (SEQ ID NO. 59), Phe (SEQ ID NO. 56), Met (SEQ ID NO. 60) or Gln (SEQ ID NO. 61). Whereas the wild-type enzyme preferred Phe>Met>Lys>Arg>Gln, the G166E preferred Lys^~ Phe>Arg^~ Met>Gln, and G166D preferred Lys>Phe^~ Arg^~ Met>Gln. Thus, both the acidic substitutions at position 166 caused a shift in preference for basic residues at the P1 site, as previously reported (Wells, J. A., Powers, D. B., Bott, R. R., Graycar, T. P.and Estell, D. A. (1987a), Proc. Natl. Acad. Sci. USA 84:1219-1223).
as §3, with “Plots of initial rates (v) versus substrate concentration (S) were fitted to the Michaelis-Menton equation, [formula] to determine the kinetic constants kcat and Km (Fersht, A. in "Enzyme Structure and Mechanism", Second edition, Freeman and Co., N.Y.) using the program Kaleidagraph (Synergy Software, Reading, Pa.).” left out

succinyl-AAKR-pNA = target: T5, succinyl-AAKR-pNA
T5 sequence (peptide, N-terminal succinyl; C-terminal p-nitroanilide (pNA)): AAKR

succinyl-AAPF-pNA = target: T6, succinyl-AAPF-pNA
T6 sequence (peptide, N-terminal succinyl; C-terminal p-nitroanilide (pNA)): AAPF

[5] = substrate: C[C@H](NC(=O)CCC(=O)O)C(=O)N[C@@H](C)C(=O)N1CCC[C@H]1C(=O)N[C@@H](Cc1ccccc1)C(=O)Nc1ccc([N+](=O)[O-])cc1; experiment: Kinetic analysis, hydrolysis of succinyl-tetrapeptide-pNA substrates; type: biochemical, Bacillus amyloliquefaciens; details: 20 mM Tris-Cl pH 8.2, 4% DMSO, 25 C
Method: as §1, §2, §3

[6] = substrate: C[C@H](NC(=O)CCC(=O)O)C(=O)N[C@@H](C)C(=O)N[C@@H](CCCCN)C(=O)N[C@@H](CCCNC(=N)N)C(=O)Nc1ccc([N+](=O)[O-])cc1; experiment: as above; type: biochemical, Bacillus amyloliquefaciens; details: 20 mM Tris-Cl pH 8.2, 4% DMSO, 25 C
Method: as §1, §2, §3

[7] = target: T7, succinyl-Ala-Ala-Pro-Lys-pNa
T7 sequence (peptide, N-terminal succinyl; C-terminal p-nitroanilide (pNA)): AAPK

[8] = target: T8, succinyl-Ala-Ala-Lys-Lys-pNa
T8 sequence (peptide, N-terminal succinyl; C-terminal p-nitroanilide (pNA)): AAKK

[9] = target: hGH-AP fusion protein with substrate linker Asn-Leu-Met-Arg-Lys (E. coli); details: scale: times faster than the Thr-Ala-Ser-Arg-Arg and Asn-Leu-Thr-Ala-Arg fusions
succinyl-KAKR-pNA = target: T9, succinyl-KAKR-pNA
T9 sequence (peptide, N-terminal succinyl; C-terminal p-nitroanilide (pNA)): KAKR

succinyl-RAKR-pNA = target: T10, succinyl-RAKR-pNA
T10 sequence (peptide, N-terminal succinyl; C-terminal p-nitroanilide (pNA)): RAKR

[10] = substrate: C[C@H](NC(=O)[C@H](CCCCN)NC(=O)CCC(=O)O)C(=O)N[C@@H](CCCCN)C(=O)N[C@@H](CCCNC(=N)N)C(=O)Nc1ccc([N+](=O)[O-])cc1; experiment: Kinetic analysis, hydrolysis of succinyl-tetrapeptide-pNA substrates; type: biochemical, Bacillus amyloliquefaciens; details: other: N62D/Y104D/G166D, 20 mM Tris-Cl pH 8.2, 4% DMSO, 25 C
Method: as §1, §2, §3

[11] = substrate: C[C@H](NC(=O)[C@H](CCCNC(=N)N)NC(=O)CCC(=O)O)C(=O)N[C@@H](CCCCN)C(=O)N[C@@H](CCCNC(=N)N)C(=O)Nc1ccc([N+](=O)[O-])cc1; experiment: as above; type: biochemical, Bacillus amyloliquefaciens; details: other: N62D/Y104D/G166D, 20 mM Tris-Cl pH 8.2, 4% DMSO, 25 C
Method: as §1, §2, §3

Molecule: C[C@H](NC(=O)CCC(=O)O)C(=O)N[C@@H](C)C(=O)N[C@@H](CCCCN)C(=O)N[C@@H](CCCNC(=N)N)C(=O)Nc1ccc([N+](=O)[O-])cc1 [succinyl-AAKR-pNA] (HELM PEPTIDE1{[O=C(O)CCC(=O)[*:2]].A.A.K.R.[O=[N+]([O-])c1ccc(N[*:1])cc1]}$$$$V2.0)
- ratio of catalytic efficiency for succinyl-AAKR-pNA versus succinyl-AAPF-pNA [1]: 1.9×10^2
- catalytic efficiency (kcat/Km), fold less efficiently hydrolyzed than succinyl-RAKR-pNA [2]: 60 fold

Molecule: C[C@H](NC(=O)CCC(=O)O)C(=O)N[C@@H](C)C(=O)N[C@@H](CCCCN)C(=O)N[C@@H](CCCCN)C(=O)Nc1ccc([N+](=O)[O-])cc1 [Lys-Lys substrate] (HELM PEPTIDE1{[O=C(O)CCC(=O)[*:2]].A.A.K.K.[O=[N+]([O-])c1ccc(N[*:1])cc1]}$$$$V2.0)
- ratio of catalytic efficiencies, times faster cleaved than the Lys-Phe substrate ([1]; Lys-Lys versus Lys-Phe substrate): 18 times
- ratio of catalytic efficiencies, times faster cleaved than the Lys-Phe substrate [3]: about 8 times

Molecule: C[C@H](NC(=O)CCC(=O)O)C(=O)N[C@@H](C)C(=O)N1CCC[C@H]1C(=O)N[C@@H](CCCCN)C(=O)Nc1ccc([N+](=O)[O-])cc1 [Lys P1 substrate] (HELM PEPTIDE1{[O=C(O)CCC(=O)[*:2]].A.A.P.K.[O=[N+]([O-])c1ccc(N[*:1])cc1]}$$$$V2.0)
- ratio of catalytic efficiencies, times faster cleaved than the Phe P1 substrate [4]: about 3 times

B1: subtilisin BPN' from Bacillus amyloliquefaciens, wild type (WT), SEQ ID NO: 90 (Bacillus amyloliquefaciens) (protein)
chain: T1 sequence (P00782 108-382 N169D/G273D) with D62N, D166G
notes: correct folding and maturation of subtilisin requires autolytic cleavage of its propeptide
- kcat/Km, hydrolysis of succinyl-tetrapeptide-pNA (succinyl-AAKR-pNA): 1700 M⁻¹ s⁻¹
- kcat/Km, hydrolysis of succinyl-tetrapeptide-pNA (succinyl-AAPF-pNA): 260000 M⁻¹ s⁻¹
- Km ([5]; other: WT): 110 µM
- kcat ([5]; other: WT): 29 s⁻¹
- kcat/Km ([5]; other: WT): 260000 M⁻¹ s⁻¹
- Km ([6]; other: WT): 1700 µM
- kcat ([6]; other: WT): 2.8 s⁻¹

B2: subtilisin BPN' variant G166D (enzyme)
chain: T1 sequence (P00782 108-382 N169D/G273D) with D62N
- ratio of catalytic efficiencies, hydrolysis of succinyl-tetrapeptide-pNA (times faster than the Phe P1 substrate) [7]: 3

Continued, in another order:

- kcat/Km, hydrolysis of succinyl-tetrapeptide-pNA (succinyl-AAKR-pNA): 370000 M⁻¹ s⁻¹
- kcat/Km, hydrolysis of succinyl-tetrapeptide-pNA (succinyl-AAPF-pNA): 1900 M⁻¹ s⁻¹
- ratio of catalytic efficiencies, hydrolysis of succinyl-tetrapeptide-pNA (times faster than a Lys-Phe substrate) [8]: 18
- rate of cleavage of the fusion protein from the hGH receptor plate (released AP activity) [9]: 10
B3: subtilisin BPN' variant N62D/G166D (mature enzyme SEQ ID NO: 72) (Bacillus amyloliquefaciens; G273D/N169D) (protein)
chain: T1 sequence (P00782 108-382 N169D/G273D)
notes: made in house; host or cells: Bacillus subtilis BG2036 (protease-deficient), secreted
- Km ([5]; other: N62D/G166D): 1800 µM
- kcat ([5]; other: N62D/G166D): 3.4 s⁻¹
- kcat/Km ([5]; other: N62D/G166D): 1900 M⁻¹ s⁻¹
- Km ([6]; other: N62D/G166D): 41 µM
- kcat ([6]; other: N62D/G166D): 15 s⁻¹
- kcat/Km ([6]; other: N62D/G166D): 370000 M⁻¹ s⁻¹

- ratio of catalytic efficiencies, hydrolysis of succinyl-tetrapeptide-pNA (times faster than the Lys-Phe substrate) [8]: 8
B4: subtilisin BPN' variant N62D/G166E (enzyme)
chain: T1 sequence (P00782 108-382 N169D/G273D) with D166E

- kcat/Km, hydrolysis of succinyl-tetrapeptide-pNA (succinyl-AAKR-pNA): 8100 M⁻¹ s⁻¹
- kcat/Km, hydrolysis of succinyl-tetrapeptide-pNA (succinyl-AAPF-pNA): 8 M⁻¹ s⁻¹
- kcat/Km, hydrolysis of succinyl-tetrapeptide-pNA (succinyl-KAKR-pNA): 340000 M⁻¹ s⁻¹
- kcat/Km, hydrolysis of succinyl-tetrapeptide-pNA (succinyl-RAKR-pNA): 490000 M⁻¹ s⁻¹
B5: subtilisin BPN' variant N62D/Y104D/G166D (SEQ ID NO: 75) (Bacillus amyloliquefaciens; G273D/N169D/Y211D) (protein)
chain: T1 sequence (P00782 108-382 N169D/G273D) with Y104D
notes: the mature enzyme +1 to +275; made in house; host or cells: Bacillus subtilis BG2036 (protease-deficient), secreted
- Km ([6]; other: N62D/Y104D/G166D): 34 µM
- kcat ([6]; other: N62D/Y104D/G166D): 0.27 s⁻¹
- kcat/Km ([6]; other: N62D/Y104D/G166D): 8100 M⁻¹ s⁻¹
- Km [10]: 29 µM
- kcat [10]: 9.8 s⁻¹
- kcat/Km [10]: 340000 M⁻¹ s⁻¹
- Km [11]: 23 µM
- kcat [11]: 11 s⁻¹
- kcat/Km [11]: 490000 M⁻¹ s⁻¹
